# Data as given in US20230340151A1 (Pfizer, published 2023).
# B1: GUCY2C-1608 (bispecific antibody)
# chain 1: DIQLTQSPSSLSASVGDRVTITCRASESVDYYGSSLLQWYQQKPGKAPKLLIYAASKLASGVPSRFSGSGSGTDFTLTISSLQPEDFATYYCQQTRKAYTFGQGTKLEIKGGGSGGGGEVQLVESGGGLVQPGGSLRLSCAASGFTFSDYYMTWVRQAPGKGLEWVAFIRNQARGYTSDHNPSVKGRFTISRDNAKNSLYLQMNSLRAEDTAVYYCARDRPSYYVLDYWGQGTTVTVSSGCPPCPAPEAAGAPSVFLFPPKPKDTLMISRTPEVTCVVVDVSHEDPEVKFNWYVDGVEVHNAKTKPREEQYNSTYRVVSVLTVLHQDWLNGKEYKCKVSNKALPAPIEKTISKAKGQPREPQVCTLPPSREEMTKNQVSLWCLVKGFYPSDIAVEWESNGQPENNYKTTPPVLDSDGSFFLYSKLTVDKSRWQQGNVFSCSVMHEALHNHYTQKSLSLSPG
# chain 2: DIQMTQSPSSLSASVGDRVTITCTSSQSLFNVRSQKNYLAWYQQKPGKAPKLLIYWASTRESGVPSRFSGSGSGTDFTLTISSLQPEDFATYYCKQSYDLFTFGGGTKVEIKGGGGSGGGGEVQLVESGGGLVQPGGSLRLSCAASGFTFSSYWMHWVRQAPGKGLEWIGEIKPSNELTNVHEKFKDRFTISVDKAKNSAYLQMNSLRAEDTAVYYCTRTITTTEGYWFFDVWGQGTLVTVSSGCPPCPAPEAAGAPSVFLFPPKPKDTLMISRTPEVTCVVVDVSHEDPEVKFNWYVDGVEVHNAKTKPREEQYNSTYRVVSVLTVLHQDWLNGKEYKCKVSNKALPAPIEKTISKAKGQPREPQVYTLPPCREEMTKNQVSLSCAVKGFYPSDIAVEWESNGQPENNYKTTPPVLDSDGSFFLVSKLTVDKSRWQQGNVFSCSVMHEALHNHYTQKSLSLSPG
# notes: also called GUCY2c CD3 bispecific
# Experiments:
# [1] = biological target: Human CD3 on naive human T cells (human, UniProt P07766 23-207); assay: cell-based or functional assay
# [2] = biological target: T1, Murine GUCY2C-ECD cleaved (mouse, UniProt Q3UWA6 20-433); assay: SPR, GUCY2c directly immobilized, 25 C
# T1 sequence: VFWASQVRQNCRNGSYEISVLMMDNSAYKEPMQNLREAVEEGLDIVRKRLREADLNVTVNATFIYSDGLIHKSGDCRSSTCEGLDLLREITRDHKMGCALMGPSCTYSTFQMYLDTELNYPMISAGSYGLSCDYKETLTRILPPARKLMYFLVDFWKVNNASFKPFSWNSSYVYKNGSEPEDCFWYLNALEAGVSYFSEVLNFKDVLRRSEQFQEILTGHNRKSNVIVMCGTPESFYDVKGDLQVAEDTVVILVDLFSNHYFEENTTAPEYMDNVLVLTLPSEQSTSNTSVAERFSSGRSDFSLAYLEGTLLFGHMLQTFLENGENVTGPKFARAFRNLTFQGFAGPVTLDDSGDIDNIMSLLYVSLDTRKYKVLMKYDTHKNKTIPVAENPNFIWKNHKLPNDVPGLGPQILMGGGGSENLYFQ
# [3] = biological target: T1, Murine GUCY2C-ECD cleaved; assay: SPR, GUCY2c directly immobilized, 37 C
# Procedure: Human GUCY2c, cyno GUCY2c and mouse GUCY2c were directly immobilized onto three different flow cells of a CM5 Sensor Chip (BR100530, GE Healthcare) surface using an amine coupling kit (BR100050, GE Healthcare) according to the manufacturer's protocol. […] Flow cell 1 was used as a reference flow cell. […] The dissociation was monitored for 400 seconds and the surface was regenerated with 10 mM Glycine pH 2.1. The running and sample buffer was 10 mM HEPES pH 7.4, 0.15 M NaCl, 3 mM EDTA, 0.05% P-20 (HBS-EP+). The data were double referenced. Binding affinities and rate constants were determined by fitting the resulting sensorgram data to a 1:1 Langmuir model in BIACORE™ T200 Evaluation software version 3.0 (GE Healthcare).
binder,measurement,setting,value
B1,"In vitro Cytotoxicity (nM), T-cell retargeting assay",[1],0.772 nM
same,Kd,[2],17.3 nM
same,koff,[2],0.00157 s⁻¹
same,kon,[2],91200 M⁻¹ s⁻¹
same,Kd,[3],90.2 nM
same,koff,[3],0.0116 s⁻¹
same,kon,[3],129000 M⁻¹ s⁻¹
